Starred links: 1 amine or outer side, 2 acyl side, 3 side chain; linkers in the order of their positions; H or OH if unused. Non-standard residues stand in square brackets, D forms with d. Groups on a side chain read outwards from the residue. No end group written: not given here. *: point of attachment. C20 diacid = O=C(O)CCCCCCCCCCCCCCCCCCC(=O)*; C18 diacid = O=C(O)CCCCCCCCCCCCCCCCC(=O)*; γGlu = O=C(O)[C@H](CCC(=O)[*:2])N[*:1]; αMeF = C[C@](N)(Cc1ccccc1)C(=O)O; AEEA = NCCOCCOCC(=O)O; Aib = CC(C)(N)C(=O)O
B1: Peptide 148 (peptide)
peptide: H[Aib]QGTFTSDVSK[αMeF]LDSK([AEEA-AEEA-γGlu-C18 diacid])RAQDFVRWIAE[Aib]G-OH
modifications: N-terminus assumed
SMILES: CC[C@H](C)[C@H](NC(=O)[C@H](Cc1c[nH]c2ccccc12)NC(=O)[C@H](CCCNC(=N)N)NC(=O)[C@@H](NC(=O)[C@H](Cc1ccccc1)NC(=O)[C@H](CC(=O)O)NC(=O)[C@H](CCC(N)=O)NC(=O)[C@H](C)NC(=O)[C@H](CCCNC(=N)N)NC(=O)[C@H](CCCCNC(=O)COCCOCCNC(=O)COCCOCCNC(=O)CC[C@H](NC(=O)CCCCCCCCCCCCCCCCC(=O)O)C(=O)O)NC(=O)[C@H](CO)NC(=O)[C@H](CC(=O)O)NC(=O)[C@H](CC(C)C)NC(=O)[C@](C)(Cc1ccccc1)NC(=O)[C@H](CCCCN)NC(=O)[C@H](CO)NC(=O)[C@@H](NC(=O)[C@H](CC(=O)O)NC(=O)[C@H](CO)NC(=O)[C@@H](NC(=O)[C@H](Cc1ccccc1)NC(=O)[C@@H](NC(=O)CNC(=O)[C@H](CCC(N)=O)NC(=O)C(C)(C)NC(=O)[C@@H](N)Cc1c[nH]cn1)[C@@H](C)O)[C@@H](C)O)C(C)C)C(C)C)C(=O)N[C@@H](C)C(=O)N[C@@H](CCC(=O)O)C(=O)NC(C)(C)C(=O)NCC(=O)O
B2: Peptide 147 (peptide)
peptide: H[Aib]QGTFTSDVSK[αMeF]LDSK([AEEA-AEEA-γGlu-C18 diacid])RAQDFVRWLEA[Aib]G-OH
modifications: N-terminus assumed
SMILES: CC(C)C[C@H](NC(=O)[C@H](Cc1c[nH]c2ccccc12)NC(=O)[C@H](CCCNC(=N)N)NC(=O)[C@@H](NC(=O)[C@H](Cc1ccccc1)NC(=O)[C@H](CC(=O)O)NC(=O)[C@H](CCC(N)=O)NC(=O)[C@H](C)NC(=O)[C@H](CCCNC(=N)N)NC(=O)[C@H](CCCCNC(=O)COCCOCCNC(=O)COCCOCCNC(=O)CC[C@H](NC(=O)CCCCCCCCCCCCCCCCC(=O)O)C(=O)O)NC(=O)[C@H](CO)NC(=O)[C@H](CC(=O)O)NC(=O)[C@H](CC(C)C)NC(=O)[C@](C)(Cc1ccccc1)NC(=O)[C@H](CCCCN)NC(=O)[C@H](CO)NC(=O)[C@@H](NC(=O)[C@H](CC(=O)O)NC(=O)[C@H](CO)NC(=O)[C@@H](NC(=O)[C@H](Cc1ccccc1)NC(=O)[C@@H](NC(=O)CNC(=O)[C@H](CCC(N)=O)NC(=O)C(C)(C)NC(=O)[C@@H](N)Cc1c[nH]cn1)[C@@H](C)O)[C@@H](C)O)C(C)C)C(C)C)C(=O)N[C@@H](CCC(=O)O)C(=O)N[C@@H](C)C(=O)NC(C)(C)C(=O)NCC(=O)O
B3: Peptide 149 (peptide)
peptide: H[Aib]QGTFTSDVSK[αMeF]LDSK([AEEA-AEEA-γGlu-C18 diacid])RAQDFVRWVVE[Aib]G-OH
modifications: N-terminus assumed
SMILES: CC(C)C[C@H](NC(=O)[C@](C)(Cc1ccccc1)NC(=O)[C@H](CCCCN)NC(=O)[C@H](CO)NC(=O)[C@@H](NC(=O)[C@H](CC(=O)O)NC(=O)[C@H](CO)NC(=O)[C@@H](NC(=O)[C@H](Cc1ccccc1)NC(=O)[C@@H](NC(=O)CNC(=O)[C@H](CCC(N)=O)NC(=O)C(C)(C)NC(=O)[C@@H](N)Cc1c[nH]cn1)[C@@H](C)O)[C@@H](C)O)C(C)C)C(=O)N[C@@H](CC(=O)O)C(=O)N[C@@H](CO)C(=O)N[C@@H](CCCCNC(=O)COCCOCCNC(=O)COCCOCCNC(=O)CC[C@H](NC(=O)CCCCCCCCCCCCCCCCC(=O)O)C(=O)O)C(=O)N[C@@H](CCCNC(=N)N)C(=O)N[C@@H](C)C(=O)N[C@@H](CCC(N)=O)C(=O)N[C@@H](CC(=O)O)C(=O)N[C@@H](Cc1ccccc1)C(=O)N[C@H](C(=O)N[C@@H](CCCNC(=N)N)C(=O)N[C@@H](Cc1c[nH]c2ccccc12)C(=O)N[C@H](C(=O)N[C@H](C(=O)N[C@@H](CCC(=O)O)C(=O)NC(C)(C)C(=O)NCC(=O)O)C(C)C)C(C)C)C(C)C
B4: Peptide 215 (peptide)
peptide: H[Aib]HGS[αMeF]TSDVSK[αMeF]LDSRAAK([AEEA-AEEA-γGlu-C20 diacid])D[αMeF]VQWIANT-NH2
modifications: N-terminus assumed
SMILES: CC[C@H](C)[C@H](NC(=O)[C@H](Cc1c[nH]c2ccccc12)NC(=O)[C@H](CCC(N)=O)NC(=O)[C@@H](NC(=O)[C@](C)(Cc1ccccc1)NC(=O)[C@H](CC(=O)O)NC(=O)[C@H](CCCCNC(=O)COCCOCCNC(=O)COCCOCCNC(=O)CC[C@H](NC(=O)CCCCCCCCCCCCCCCCCCC(=O)O)C(=O)O)NC(=O)[C@H](C)NC(=O)[C@H](C)NC(=O)[C@H](CCCNC(=N)N)NC(=O)[C@H](CO)NC(=O)[C@H](CC(=O)O)NC(=O)[C@H](CC(C)C)NC(=O)[C@](C)(Cc1ccccc1)NC(=O)[C@H](CCCCN)NC(=O)[C@H](CO)NC(=O)[C@@H](NC(=O)[C@H](CC(=O)O)NC(=O)[C@H](CO)NC(=O)[C@@H](NC(=O)[C@](C)(Cc1ccccc1)NC(=O)[C@H](CO)NC(=O)CNC(=O)[C@H](Cc1c[nH]cn1)NC(=O)C(C)(C)NC(=O)[C@@H](N)Cc1c[nH]cn1)[C@@H](C)O)C(C)C)C(C)C)C(=O)N[C@@H](C)C(=O)N[C@@H](CC(N)=O)C(=O)N[C@H](C(N)=O)[C@@H](C)O
B5: Peptide 213 (peptide)
peptide: H[Aib]HGS[αMeF]TSDVSK[αMeF]LDSRAAK([AEEA-AEEA-γGlu-γGlu-C20 diacid])DFVEWIANT-NH2
modifications: N-terminus assumed
SMILES: CC[C@H](C)[C@H](NC(=O)[C@H](Cc1c[nH]c2ccccc12)NC(=O)[C@H](CCC(=O)O)NC(=O)[C@@H](NC(=O)[C@H](Cc1ccccc1)NC(=O)[C@H](CC(=O)O)NC(=O)[C@H](CCCCNC(=O)COCCOCCNC(=O)COCCOCCNC(=O)CC[C@H](NC(=O)CC[C@H](NC(=O)CCCCCCCCCCCCCCCCCCC(=O)O)C(=O)O)C(=O)O)NC(=O)[C@H](C)NC(=O)[C@H](C)NC(=O)[C@H](CCCNC(=N)N)NC(=O)[C@H](CO)NC(=O)[C@H](CC(=O)O)NC(=O)[C@H](CC(C)C)NC(=O)[C@](C)(Cc1ccccc1)NC(=O)[C@H](CCCCN)NC(=O)[C@H](CO)NC(=O)[C@@H](NC(=O)[C@H](CC(=O)O)NC(=O)[C@H](CO)NC(=O)[C@@H](NC(=O)[C@](C)(Cc1ccccc1)NC(=O)[C@H](CO)NC(=O)CNC(=O)[C@H](Cc1c[nH]cn1)NC(=O)C(C)(C)NC(=O)[C@@H](N)Cc1c[nH]cn1)[C@@H](C)O)C(C)C)C(C)C)C(=O)N[C@@H](C)C(=O)N[C@@H](CC(N)=O)C(=O)N[C@H](C(N)=O)[C@@H](C)O
B6: Peptide 210 (peptide)
peptide: H[Aib]HGS[αMeF]TSDVSK[αMeF]LDSQAAK([AEEA-AEEA-γGlu-γGlu-C18 diacid])DFVEWIANT-NH2
modifications: N-terminus assumed
SMILES: CC[C@H](C)[C@H](NC(=O)[C@H](Cc1c[nH]c2ccccc12)NC(=O)[C@H](CCC(=O)O)NC(=O)[C@@H](NC(=O)[C@H](Cc1ccccc1)NC(=O)[C@H](CC(=O)O)NC(=O)[C@H](CCCCNC(=O)COCCOCCNC(=O)COCCOCCNC(=O)CC[C@H](NC(=O)CC[C@H](NC(=O)CCCCCCCCCCCCCCCCC(=O)O)C(=O)O)C(=O)O)NC(=O)[C@H](C)NC(=O)[C@H](C)NC(=O)[C@H](CCC(N)=O)NC(=O)[C@H](CO)NC(=O)[C@H](CC(=O)O)NC(=O)[C@H](CC(C)C)NC(=O)[C@](C)(Cc1ccccc1)NC(=O)[C@H](CCCCN)NC(=O)[C@H](CO)NC(=O)[C@@H](NC(=O)[C@H](CC(=O)O)NC(=O)[C@H](CO)NC(=O)[C@@H](NC(=O)[C@](C)(Cc1ccccc1)NC(=O)[C@H](CO)NC(=O)CNC(=O)[C@H](Cc1c[nH]cn1)NC(=O)C(C)(C)NC(=O)[C@@H](N)Cc1c[nH]cn1)[C@@H](C)O)C(C)C)C(C)C)C(=O)N[C@@H](C)C(=O)N[C@@H](CC(N)=O)C(=O)N[C@H](C(N)=O)[C@@H](C)O
B7: Peptide 233 (peptide)
peptide: H[Aib]HGS[αMeF]TSDVSK[αMeF]LDSRAAK([AEEA-AEEA-γGlu-γGlu-C20 diacid])D[αMeF]VQ[Aib]IANTGG-NH2
modifications: N-terminus assumed
SMILES: CC[C@H](C)[C@H](NC(=O)C(C)(C)NC(=O)[C@H](CCC(N)=O)NC(=O)[C@@H](NC(=O)[C@](C)(Cc1ccccc1)NC(=O)[C@H](CC(=O)O)NC(=O)[C@H](CCCCNC(=O)COCCOCCNC(=O)COCCOCCNC(=O)CC[C@H](NC(=O)CC[C@H](NC(=O)CCCCCCCCCCCCCCCCCCC(=O)O)C(=O)O)C(=O)O)NC(=O)[C@H](C)NC(=O)[C@H](C)NC(=O)[C@H](CCCNC(=N)N)NC(=O)[C@H](CO)NC(=O)[C@H](CC(=O)O)NC(=O)[C@H](CC(C)C)NC(=O)[C@](C)(Cc1ccccc1)NC(=O)[C@H](CCCCN)NC(=O)[C@H](CO)NC(=O)[C@@H](NC(=O)[C@H](CC(=O)O)NC(=O)[C@H](CO)NC(=O)[C@@H](NC(=O)[C@](C)(Cc1ccccc1)NC(=O)[C@H](CO)NC(=O)CNC(=O)[C@H](Cc1c[nH]cn1)NC(=O)C(C)(C)NC(=O)[C@@H](N)Cc1c[nH]cn1)[C@@H](C)O)C(C)C)C(C)C)C(=O)N[C@@H](C)C(=O)N[C@@H](CC(N)=O)C(=O)N[C@H](C(=O)NCC(=O)NCC(N)=O)[C@@H](C)O

Target: human GLP-1 receptor (hGLP-1R) (human, UniProt P43220 24-463)
Experiment: cell-based or functional assay

| hGLP-1R EC50 (pM) | Binder |
| --- | --- |
| 40.2 | B1 |
| 15.3 | B2 |
| 8.71 | B3 |

Target: human glucagon receptor (hGCGR) (human, UniProt P47871 26-477)
Sequence (P47871 26-477): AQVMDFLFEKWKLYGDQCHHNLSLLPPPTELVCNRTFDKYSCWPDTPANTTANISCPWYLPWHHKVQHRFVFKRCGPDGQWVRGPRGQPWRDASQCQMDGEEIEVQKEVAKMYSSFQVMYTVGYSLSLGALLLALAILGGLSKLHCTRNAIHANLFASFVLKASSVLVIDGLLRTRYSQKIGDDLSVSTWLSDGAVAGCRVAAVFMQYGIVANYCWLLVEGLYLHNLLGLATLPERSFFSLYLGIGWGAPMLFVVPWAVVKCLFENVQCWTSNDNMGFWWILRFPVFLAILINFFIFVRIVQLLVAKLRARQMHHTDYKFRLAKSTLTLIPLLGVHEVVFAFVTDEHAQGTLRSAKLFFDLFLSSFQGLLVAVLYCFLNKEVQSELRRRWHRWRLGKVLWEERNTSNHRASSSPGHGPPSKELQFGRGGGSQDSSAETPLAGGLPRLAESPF
Experiment: cell-based or functional assay

| hGluc-R EC50 (pM) | Binder |
| --- | --- |
| 568 | B1 |
| 43.5 | B2 |
| 2650 | B3 |

Target: human GLP-1 receptor (human, UniProt P43220 24-463)
Experiment: cell-based or functional assay

| hGLP-1R EC50 (pM), cAMP [pM] | Binder |
| --- | --- |
| 122 | H[Aib]HGS[αMeF]TSDVSK[αMeF]LDSR[Aib]AK([AEEA-AEEA-γGlu-γGlu-C20 diacid])DFVQ[Aib]IANT-NH2 (not fully specified) [Peptide 221] |
| 7620 | B4 |
| 534 | B5 |
| 156 | B6 |

Target: human glucagon receptor (human, UniProt P47871 26-477)
Sequence (P47871 26-477): as above
Experiment: cell-based or functional assay

| hGluc-R EC50 (pM), cAMP [pM] | Binder |
| --- | --- |
| 407 | B7 |
| 123 | H[Aib]HGS[αMeF]TSDVSK[αMeF]LDSR[Aib]AK([AEEA-AEEA-γGlu-γGlu-C20 diacid])DFVQ[Aib]IANT-NH2 (not fully specified) [Peptide 221] |
| 2610 | B4 |
| 141 | B5 |
| 93.7 | B6 |

Source: US20230357348A1 (AstraZeneca / MedImmune, published 2023)
